Key:
[1] = molecular target: I-Bth0305I full-length enzyme containing a catalytically inactivating D222N mutation (Bacillus thuringiensis 0305ϕ8–36 bacteriophage); assay: SEC
[2] = molecular target: I-Bth0305I isolated catalytic domain containing a D196A mutation (Bacillus thuringiensis 0305ϕ8–36 bacteriophage); assay: SEC

I-Bth0305I full-length enzyme containing a catalytically inactivating D222N mutation
stoichiometry N [1]: 2

I-Bth0305I isolated catalytic domain containing a D196A mutation (domain or fragment)
stoichiometry N [2]: 2
